Article PMC2774669 (Microbial Cell Factories, 2009)

Target: the molecule itself
Experiment: aggregation kinetics by turbidity

B1: HET-s prion forming domain (PFD), HET-s(218-289) (domain or fragment, Podospora anserina, UniProt Q03689 218-289, looked up)
chain: KIDAIVGRNSAKDIRTEERARVQLGNVVTAAALHGGIRISDQTTNSVETVVGKGESRVLIGNEYGGKGFWDN
notes: also called HET-s PFD
binding result: binds
